Measured values from the supplement of paper PMC10567573.

B1: SLC35F2 (parent)
chain: QYLAERYKVNTPMLQSFINYCLLF

Variants of: B1
Assay: protein stability index of a GFP-peptide fusion (GPS, HEK-293T) (PSI 1-6); higher = more stable
Details: c terminus: a fixed tail appended
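Further: lentivirally expressed fusions sorted by FACS into six bins by GFP to DsRed ratio, PSI derived from sequencing read proportions per bin multiplied by bin number.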

Protein stability index, by site and new letter:
R6: W 2.51 | Y 1.16
Y7: A 3.17 | C 3.12 | D 2.49 | E 2.03 | F 2.18 | G 3.27 | H 2.95 | I 2.21 | K 2.53 | L 2.35 | M 1.62 | N 2.89 | P 2.98 | Q 3.26 | R 1.55 | S 2.48 | T 2.19 | V 2.92 | W 1.84
K8: A 2.54 | C 3.39 | D 2.44 | E 2.04 | F 3.46 | G 2.38 | H 2.64 | L 2.87 | M 2.75 | N 2.22 | P 2.35 | Q 2.13 | R 1.63 | S 3.15 | T 2.43 | V 2.61 | W 2.55 | Y 3.27
V9: A 1.65 | C 2.68 | D 1.8 | E 2.65 | F 3.49 | G 2.3 | H 2.48 | I 2.51 | K 2.37 | L 2.6 | M 2.54 | N 2.23 | P 2.24 | Q 2.87 | R 1.86 | S 2.58 | T 2.4 | W 1.98 | Y 2.06
N10: A 2.09 | C 2.2 | D 2.83 | E 2.2 | F 2.88 | G 2.54 | H 2.71 | I 2.88 | K 2.14 | L 3.17 | M 2.96 | P 1.68 | Q 1.87 | R 1.85 | S 2.36 | T 2.51 | V 2.92 | W 2.29 | Y 2.75
T11: A 2.13 | C 3.08 | D 2.63 | E 2.27 | F 2.04 | G 2.28 | H 2.19 | I 2.6 | K 2.21 | L 2.89 | M 2.69 | N 2.71 | P 1.8 | Q 2.96 | R 2.57 | S 2.65 | V 2.5 | W 2.12 | Y 3.51
P12: A 4.77 | C 3.04 | D 3.1 | E 2.52 | F 3.15 | G 2.73 | H 3.1 | I 3.44 | K 1.74 | L 3.97 | M 3.68 | N 2.72 | Q 1.7 | R 3.12 | S 2.35 | T 2.54 | W 1.29 | Y 3.33
M13: A 3.48 | C 3.76 | D 2.2 | E 2.99 | F 2.34 | G 2.2 | H 2.59 | I 2.52 | K 2.04 | L 1.83 | N 3.77 | P 2.69 | Q 2.02 | R 2.64 | S 2.93 | T 2.74 | V 3.22 | W 1.9 | Y 2.4
L14: A 2.37 | C 2.03 | D 2.82 | E 2.45 | F 1.69 | G 2.08 | H 2.11 | I 2.73 | K 2.38 | M 3.31 | N 2.12 | P 2.12 | Q 3.39 | R 2.66 | S 1.87 | T 2.65 | V 2.31 | W 2.4 | Y 3.03
Q15: A 2.71 | C 2.95 | D 3.24 | E 3.23 | F 3.17 | G 3.36 | H 2.23 | I 1.67 | K 1.28 | L 3.28 | M 2.15 | N 2.61 | P 3.78 | R 2.29 | S 3.63
